Target: FITC-conjugated Mouse transferrin (UniProt Q921I1)
Assay: flow cytometry on cells
Settings: read off a plot

Sequence of UniProt Q921I1 (Q921I1 whole entry, looked up): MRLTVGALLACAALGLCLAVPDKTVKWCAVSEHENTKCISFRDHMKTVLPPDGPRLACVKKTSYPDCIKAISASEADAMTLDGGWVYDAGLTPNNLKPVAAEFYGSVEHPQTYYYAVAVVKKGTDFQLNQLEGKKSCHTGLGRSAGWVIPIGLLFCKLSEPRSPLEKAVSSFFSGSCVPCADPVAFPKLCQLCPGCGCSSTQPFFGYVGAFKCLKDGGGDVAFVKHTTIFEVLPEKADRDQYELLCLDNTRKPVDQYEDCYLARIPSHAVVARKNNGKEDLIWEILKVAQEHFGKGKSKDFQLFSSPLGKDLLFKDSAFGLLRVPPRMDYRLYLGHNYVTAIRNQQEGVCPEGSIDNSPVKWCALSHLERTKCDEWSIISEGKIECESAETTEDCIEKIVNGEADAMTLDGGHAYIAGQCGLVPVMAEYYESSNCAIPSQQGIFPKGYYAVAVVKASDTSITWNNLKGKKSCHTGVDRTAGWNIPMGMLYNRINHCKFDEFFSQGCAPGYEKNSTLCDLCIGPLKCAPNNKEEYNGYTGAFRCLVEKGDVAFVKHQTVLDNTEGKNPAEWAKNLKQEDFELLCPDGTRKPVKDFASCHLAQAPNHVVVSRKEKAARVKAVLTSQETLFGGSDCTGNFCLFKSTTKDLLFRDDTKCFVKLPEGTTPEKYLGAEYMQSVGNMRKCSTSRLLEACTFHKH

Substance: house mouse (Mus musculus) TfR1, wild type, C-terminal FLAG (from UniProt Q62351) A296S; R569I; A575L
- response (parent: est. 1100): 910 m.f.i.

Substance: zygodont (Zygodontomys brevicauda) TfR1, wild type, C-terminal FLAG S296A; N569R; S575A
- response (MDCK cells stably expressing TfR1-FLAG, incubated with media containing FITC-labeled iron-loaded mouse transferrin, three replicates, parent: est. 580): 590 m.f.i.
